Laboratory results as given in patent publication US20210246195A1.

How the values were obtained:
[1] = target: Ara h 2 (purified natural peanut allergen) (Arachis hypogaea) (UniProt Q6PSU2); assay: BLI, antibody on anti-human IgG Fc sensors, Ara h 2 as analyte, top 6 nM
[2] = target: Ara h 2 (purified natural peanut allergen) (Arachis hypogaea) (UniProt Q6PSU2); assay: not named there (biolayer interferometry in Example 1)
[3] = target: Ara h 2 (purified natural peanut allergen) (Arachis hypogaea) (UniProt Q6PSU2); assay: biolayer interferometry

Chain of Ara h 2 (purified natural peanut allergen) (Arachis hypogaea) (Q6PSU2 22-172): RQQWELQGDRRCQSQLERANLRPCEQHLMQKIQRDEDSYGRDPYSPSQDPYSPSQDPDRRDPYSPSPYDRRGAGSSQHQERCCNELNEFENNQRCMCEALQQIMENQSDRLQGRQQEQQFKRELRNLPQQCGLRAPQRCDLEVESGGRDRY

Row | Binder | Kd [1] | Kd [2] | Kd [3]
1 | PA12P3D08 (antibody, human IgG1, V domains shown) VH: QVQLVESGGGVVQPGKSLRLSCAASAFTFRRFAMHWVRQAPGKGLEWVAVISDNGLREDYEDSVKGRFTISRDNSQNTLYLQMNGLRAEDTAVYYCAKVLDYNEYSLYFGMDVWGQGTTVTVSS VL: EVVLTQSPATLSLSPGERATLSCRTSQAISNNFLAWYQQRPGQPPRLLIYASSRRATDTPDRFTGSGSGTDFTLTITRLEPEDFAVYFCQYYSDSPPYTFGPGTKLEIK | 0.014 nM |  | 
2 | PA12P1C07 (antibody, human IgG1, V domains shown) VH: QVQLEESGGGVVQPGKSLRLSCVASAFTFKRFAMHWVRQAPGKGLEWVAVISDNGLREDYEDSVKGRFTISRDNSKDTLYLQMNSLRPEDTAIYYCAKVLDYSEYSLYFGMDVWGQGTTVLVSS VL: EIVLTQSPAILSLSPGDRATLSCRTSQTVNSNFLAWYQQKPGQAPRLLIYGASRRAIDIPDRFTGSGSGTEFTLTIARLEPEDFAVYSCQHYSDSPPYTFGQGTKLEIK | 0.017 nM |  | 
3 | PA13P1H08 variant rCDR1-N (antibody, human IgG1, V domains shown) VH: QVQLVNSGGGVVQPGRSLRLSCVASGFTFSSYGIHWVRQAPGKGLEWVAVISNDGEKSESADSVKGRFTPSRDNSKNTVYLQMNNLRVEDTAVYYCAKVLDYSRYSYYYGMDVWGQGTTVIVSS VL: EIVLTQSPGTLSLSPGGRGTLSCRTSQTINNAHLAWYQHKPGQAPRLLIYGSSERATGVPDRFSGSGSGSDFTLTISSLEAEDFAVYYCQHYGRSPPYTFGPGTKLDIK | 0.016 nM |  | 
4 | PA13P1H08 variant rCDR2-N (antibody, human IgG1, V domains shown) VH: QVQLVNSGGGVVQPGRSLRLSCVASGFTFSTFGIHWVRQAPGKGLEWVAVISYDGSNKESADSVKGRFTPSRDNSKNTVYLQMNNLRVEDTAVYYCAKVLDYSRYSYYYGMDVWGQGTTVIVSS VL: EIVLTQSPGTLSLSPGGRGTLSCRTSQTINNAHLAWYQHKPGQAPRLLIYGSSERATGVPDRFSGSGSGSDFTLTISSLEAEDFAVYYCQHYGRSPPYTFGPGTKLDIK | 0.008 nM | < 1 nM | 

Next, values leading:

Row | Kd [1] | Kd [2] | Kd [3] | Binder
5 | 0.039 nM |  |  | PA13P1H08 variant rFWRs-N (antibody, human IgG1, V domains shown) VH: QVQLVESGGGVVQPGRSLRLSCAASGFTFSTFGMHWVRQAPGKGLEWVAVISNDGEKSYYADSVKGRFTISRDNSKNTLYLQMNSLRAEDTAVYYCAKVLDYSRYSYYYGMDVWGQGTTVTVSS VL: EIVLTQSPGTLSLSPGGRGTLSCRTSQTINNAHLAWYQHKPGQAPRLLIYGSSERATGVPDRFSGSGSGSDFTLTISSLEAEDFAVYYCQHYGRSPPYTFGPGTKLDIK
6 | 0.54 nM |  | < 1 nM | PA15P1D05 (antibody, human IgG1, V domains shown) VH: QVHLVESGGGVVQPGRSLGLSCVASGFTFNYYAIHWVRQAPGKGLEWVAVVSFDGNIIYYADSVKGRFNISRDNSKNTVNLQMNSLRPDDTAVYYCVRDGEYCSGGNCYWGDFDHWGQGSLVTVSP VL: EIVLTQSPATLSLSPGERATLSCRASQSISSEYLTWFQQKPGQAPRLLIYGAFNRATGIPDRFSGSGSGTDFTLTISSLEPEDFAVYYCQQYANWWTFGQGTKVEIK
7 | 0.65 nM |  | < 1 nM | PA15P1D12 (antibody, human IgG1, V domains shown) VH: QVHLVESGGGVVQPGRSLGLSCAASGFTFNYYAIHWVRQAPGKGLEWVAVVSFDGNIIYYADSVKGRFNISRDNSKNTVNLQMNSLRADDTAVYYCVRDGEYCSGGNCYWGDFDYWGQGTLVTVSP VL: EIVLTQSPGTLSLSPGERATLSCRASQSISSEYLTWFQQKPGQAPRLLIYGAFNRATGIPDRFSGSGSGTDFTLTISSLEPEDFAVYYCQQYANWWTFGQGTKVEIK
